Where “and” joins values, the source holds several entries; their conditions need not be identical. Identical values can stand only once. Like-named read-outs stand apart in the source and are kept apart here.
T1: C. elegans cofactor-independent phosphoglycerate mutase (iPGM) (Caenorhabditis elegans), G5EFZ1
T1 chain: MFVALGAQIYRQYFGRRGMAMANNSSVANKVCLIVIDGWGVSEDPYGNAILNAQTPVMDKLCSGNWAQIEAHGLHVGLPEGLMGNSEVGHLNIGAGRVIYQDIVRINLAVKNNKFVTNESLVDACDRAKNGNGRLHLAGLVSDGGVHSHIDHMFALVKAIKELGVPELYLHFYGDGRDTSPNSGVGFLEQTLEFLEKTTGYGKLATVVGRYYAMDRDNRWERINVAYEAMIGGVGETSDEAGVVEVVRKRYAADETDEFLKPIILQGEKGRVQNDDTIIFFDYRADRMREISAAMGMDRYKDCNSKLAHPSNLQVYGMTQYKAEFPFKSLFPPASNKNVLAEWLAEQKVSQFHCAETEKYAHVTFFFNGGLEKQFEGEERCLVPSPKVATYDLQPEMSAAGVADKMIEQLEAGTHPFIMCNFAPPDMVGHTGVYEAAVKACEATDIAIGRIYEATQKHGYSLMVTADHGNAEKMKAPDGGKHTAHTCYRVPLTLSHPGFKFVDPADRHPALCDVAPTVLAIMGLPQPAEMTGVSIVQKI

T2: E. coli cofactor-dependent phosphoglycerate mutase (dPGM) (Escherichia coli), P62707
T2 chain: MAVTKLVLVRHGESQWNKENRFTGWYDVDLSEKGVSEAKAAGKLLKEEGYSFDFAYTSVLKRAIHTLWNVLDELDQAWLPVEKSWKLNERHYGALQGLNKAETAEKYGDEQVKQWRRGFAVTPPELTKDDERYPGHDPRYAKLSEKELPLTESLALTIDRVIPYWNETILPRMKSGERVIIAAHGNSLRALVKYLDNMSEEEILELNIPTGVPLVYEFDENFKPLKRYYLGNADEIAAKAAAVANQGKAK

T3: O. volvulus cofactor-independent phosphoglycerate mutase (iPGM) (Onchocerca volvulus), I6LDA6
T3 chain: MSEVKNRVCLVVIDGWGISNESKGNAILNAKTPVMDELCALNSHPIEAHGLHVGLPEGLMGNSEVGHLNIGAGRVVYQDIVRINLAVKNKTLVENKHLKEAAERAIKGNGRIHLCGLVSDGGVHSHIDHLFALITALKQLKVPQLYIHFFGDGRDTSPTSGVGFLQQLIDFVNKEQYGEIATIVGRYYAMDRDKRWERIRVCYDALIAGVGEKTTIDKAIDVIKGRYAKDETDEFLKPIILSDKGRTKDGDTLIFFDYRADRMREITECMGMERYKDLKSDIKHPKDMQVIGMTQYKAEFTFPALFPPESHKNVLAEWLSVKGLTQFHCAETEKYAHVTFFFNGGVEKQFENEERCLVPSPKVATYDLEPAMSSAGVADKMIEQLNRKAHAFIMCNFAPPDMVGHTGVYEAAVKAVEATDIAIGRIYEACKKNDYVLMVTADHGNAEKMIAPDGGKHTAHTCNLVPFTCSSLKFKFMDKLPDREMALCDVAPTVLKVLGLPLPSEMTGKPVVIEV

T4: B. malayi cofactor-independent phosphoglycerate mutase (iPGM) (Brugia malayi), Q4VWF8
T4 chain: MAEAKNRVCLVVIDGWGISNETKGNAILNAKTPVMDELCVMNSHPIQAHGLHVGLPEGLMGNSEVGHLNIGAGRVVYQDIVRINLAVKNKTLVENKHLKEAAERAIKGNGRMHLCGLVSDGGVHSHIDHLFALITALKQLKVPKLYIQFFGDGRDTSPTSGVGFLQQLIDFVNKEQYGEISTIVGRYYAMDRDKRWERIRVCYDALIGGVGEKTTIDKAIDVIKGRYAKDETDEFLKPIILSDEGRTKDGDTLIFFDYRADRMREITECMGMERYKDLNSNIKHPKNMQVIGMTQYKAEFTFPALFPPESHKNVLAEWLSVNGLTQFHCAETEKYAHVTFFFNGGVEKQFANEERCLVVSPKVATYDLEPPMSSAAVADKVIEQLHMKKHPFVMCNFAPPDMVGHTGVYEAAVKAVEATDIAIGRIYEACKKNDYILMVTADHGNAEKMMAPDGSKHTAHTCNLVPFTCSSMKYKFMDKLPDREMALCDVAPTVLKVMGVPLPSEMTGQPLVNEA

B1: Ce-2d (peptide)
peptide: YDYPGDYCYLY
modifications: not checked
B2: Ce-2 (ipglycermide B) (peptide)
peptide: YDYPGDYCYLYGTCG
modifications: not checked
B3: Ce-1 (ipglycermide A) (peptide)
peptide: YDYPGDHCYLYGTCG
modifications: not checked

Experiments:
B. malayi iPGM = B. malayi iPGM (Brugia malayi, UniProt Q4VWF8); assay: biochemical
D. immitis iPGM = type: biochemical, Dirofilaria immitis
E. coli iPGM = E. coli iPGM (Escherichia coli, UniProt P37689); assay: biochemical
[1] = tested on: iPGM orthologs and dPGM isozymes; type: biochemical
O. volvulus iPGM = O. volvulus iPGM (Onchocerca volvulus, UniProt I6LDA6); assay: biochemical
[2] = molecular target: T1, C. elegans cofactor-independent …; assay: cell-based or functional assay
[3] = molecular target: T5, E. coli cofactor-independent phosphoglycerate mutase (iPGM) (Escherichia coli), P37689; assay: cell-based or functional assay
[4] = molecular target: T1, C. elegans cofactor-independent …; assay: cell-based or functional assay
[5] = molecular target: H. sapiens cofactor-dependent phosphoglycerate mutase (dPGM) (Homo sapiens), P18669; assay: cell-based or functional assay
[6] = molecular target: T2, E. coli cofactor-dependent …; assay: cell-based or functional assay
[7] = molecular target: T5, E. coli cofactor-independent …; assay: cell-based or functional assay; remark: listed apart in the source
[8] = molecular target: T3, O. volvulus cofactor-independent …; assay: cell-based or functional assay
[9] = molecular target: T4, B. malayi cofactor-independent …; assay: cell-based or functional assay
[10] = molecular target: T1, C. elegans cofactor-independent …; assay: quadratic (stoichiometric binding) model fitted to concentration response curves of the coupled bioluminescent enzyme assay at several C. elegans iPGM concentrations (FIG. 10B)
[11] = molecular target: T3, O. volvulus cofactor-independent …; assay: cell-based or functional assay
[12] = molecular target: T4, B. malayi cofactor-independent …; assay: cell-based or functional assay
iPGM orthologues = assay: cell-based or functional assay
[13] = molecular target: T3, O. volvulus cofactor-independent …; assay: cell-based or functional assay
[14] = read-out: B. malayi iPGM Max Inhibition
[15] = read-out: E. coli iPGM Max Inhibition
[16] = read-out: O. volvulus iPGM Max Inhibition

Sequence of E. coli iPGM (P37689 whole entry, looked up): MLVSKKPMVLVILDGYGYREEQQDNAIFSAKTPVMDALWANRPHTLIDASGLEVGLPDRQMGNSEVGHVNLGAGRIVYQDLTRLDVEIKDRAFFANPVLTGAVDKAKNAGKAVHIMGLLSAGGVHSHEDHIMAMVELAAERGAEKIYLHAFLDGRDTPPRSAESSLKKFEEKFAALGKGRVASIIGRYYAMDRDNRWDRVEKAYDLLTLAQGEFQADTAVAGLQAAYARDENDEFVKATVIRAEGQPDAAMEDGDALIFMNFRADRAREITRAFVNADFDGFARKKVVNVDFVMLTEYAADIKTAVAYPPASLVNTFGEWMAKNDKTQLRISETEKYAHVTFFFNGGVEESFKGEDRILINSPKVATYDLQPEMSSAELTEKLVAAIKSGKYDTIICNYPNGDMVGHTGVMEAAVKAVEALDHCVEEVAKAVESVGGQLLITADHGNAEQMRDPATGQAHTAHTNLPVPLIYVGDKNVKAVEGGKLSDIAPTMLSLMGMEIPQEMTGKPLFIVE

| Molecule | D. immitis iPGM Max Inhibition (D. immitis iPGM) | inhibitory activity on the iPGM orthologs [1] | B. malayi iPGM Max Inhibition (B. malayi iPGM) | E. coli iPGM Max Inhibition (E. coli iPGM) | O. volvulus iPGM Max Inhibition (O. volvulus iPGM) | IC50 [2] | pIC50 [2] [pIC50] | IC50 [3] [nM] | pIC50 [3] [pIC50] | Max Inhibition [4] | Max Inhibition (* iPGM 500 pM) [4] | pEC50 (GEMBE) [4] [pEC50] | pIC50 [4] | pIC50 (* iPGM 500 pM) [4] | Max Inhibition [5] | Max Inhibition (* series) [5] | Max Inhibition [6] | Max Inhibition (* series) [6] | Max Inhibition [7] | pIC50 [7] | also measured |
| --- | --- | --- | --- | --- | --- | --- | --- | --- | --- | --- | --- | --- | --- | --- | --- | --- | --- | --- | --- | --- | --- |
| CC(C)C[C@H](NC(=O)[C@H](Cc1ccc(O)cc1)NC(=O)[C@@H]1CSCC(=O)N[C@H](Cc2ccc(O)cc2)C(=O)N[C@@H](CC(=O)O)C(=O)N[C@@H](Cc2ccc(O)cc2)C(=O)N2CCC[C@H]2C(=O)NCC(=O)N[C@@H](CC(=O)O)C(=O)N[C@@H](Cc2ccc(O)cc2)C(=O)N1)C(=O)N[C@@H](Cc1ccc(O)cc1)C(=O)NCC(=O)N[C@H](C(=O)N[C@@H](CS)C(N)=O)[C@@H](C)O [Ce-2a] | −100.1 ± 5.6 | subnanomolar potency | – | – | – | – | – | – | – | – | – | – | – | – | – | – | – | – | – | – | B. malayi iPGM PIC50, M (B. malayi iPGM): 8.07 ± 0.10 M and 9.49 ± 0.08 M; Emax (B. malayi iPGM; [14]): 99.2 ± 5.3%; inhibition at 0.0005 µM (B. malayi iPGM; [14]): 100.3 ± 0.8%; D. immitis iPGM PIC50, M (D. immitis iPGM): 9.68 ± 0.09 M; D. immitis iPGM Max Inhibition (D. immitis iPGM; 0.0005 µM): −92.5 ± 4.0; E. coli iPGM PIC50, M (E. coli iPGM): 8.51 ± 0.14 M and 9.58 ± 0.02 M; Emax (E. coli iPGM; [15]): 99.2 ± 8.5%; inhibition at 0.0005 µM (E. coli iPGM; [15]): 84.1 ± 9.5%; O. volvulus iPGM PIC50, M (O. volvulus iPGM): 7.31 ± 0.09 M; pIC50 O. volvulus iPGM (O. volvulus iPGM): 9.68; Emax (O. volvulus iPGM; [16]): 97.7 ± 4.4%; inhibition at 0.0005 µM (O. volvulus iPGM; [16]): 97.5 ± 2.7% |
| ^Ac-DYDYPGDYSYLY [Ce-L2d] | −5.2 ± 4.9 | completely inactive | −7.3 ± 2.0 | −21.1 ± 2.4 | −15.7 ± 8.3 | – | – | – | – | – | – | – | – | – | – | – | – | – | – | – | – |
| ^Ac-DYLYGTCG [Ce-2tail] | −1.9 ± 10.3 | – | −10.2 ± 3.3 | −21.1 ± 2.7 | −11.6 ± 5.3 | – | – | – | – | – | – | – | – | – | – | – | – | – | – | – | activity on all PGMs [1]: inactive |
| B1 | – | – | – | – | – | 3.9 nM and 3.88 nM | 8.41 | 0.77 | 9.12 | -103 | -100 | 8.49 | 8.56 pIC50 (M) | 9.03 pIC50 (M) | -1.2 | 7.9 | -6.3 | 2.3 | -102 | 8.71 pIC50 (M) | pEC50 (GEMBE) [7]: 8.5 pEC50 |
| B2 | – | – | – | – | – | 2.3 nM and 2.34 nM | 8.63 | 0.23 | 9.64 | -100 | -101 | 8.36 | 8.65 pIC50 (M) | 9.6 pIC50 (M) | -0.3 | 1.9 | -5.9 | 2.7 | -102 | 8.78 pIC50 (M) | IC50 [8]: 23 nM and 23.5 nM; pIC50 [8]: 7.63 pIC50; IC50 [9]: 17 nM and 16.8 nM; pIC50 [9]: 7.78 pIC50; Kd [10]: 0.073 nM; Max Inhibition [11]: -98.2; fold enhancement in affinity against linear Ce-L2 (from IC50s) [11]: 10000 fold; pIC50 [11]: 7.72 pIC50 (M); Max Inhibition [12]: -98.8; pEC50 (GEMBE) [12]: 8.37 pEC50; pIC50 [12]: 8.27 pIC50 (M); fold enhancement in affinity against linear Ce-L2 (from IC50s) [7]: 2000 fold; pEC50 (GEMBE) [7]: 8.49 pEC50; inhibitory activity (endpoint profiling assays) (iPGM orthologues): 2 to 20 nM |
| B3 | – | – | – | – | – | – | – | – | – | -95.8 | – | – | 8.4 pIC50 (M) | – | 4 | – | 5 | – | -96.5 | 8.38 pIC50 (M) | pIC50 [13]: 7.62 pIC50; Max Inhibition [11]: -95.4; pIC50 [11]: 7.61 pIC50 (M); Max Inhibition [12]: -94; pIC50 [12]: 7.92 pIC50 (M); inhibitory activity (endpoint profiling assays) (iPGM orthologues): 2 to 20 nM |
